Laboratory results from patent publication US9422450B2, “Surface coated structures and methods” (ARCH BIOPHYSICS, INC., priority 2009, dated 2016).
Bridges are numbered along the chain shown (N, C = ends). Where no end group is shown, it is not given here.

Test: Corrosion resistance (Icorr, Ecorr, corrosion rate, Rp) of coated stainless steel
Type: physicochemical
Conditions: pilin conjugates on stainless steel

## E-PAK: pilin peptide conjugated to an E-coil (negatively charged leucine zipper) peptide (DGLWKCTSDQDEQFIPKGCSR; disulfide 6-19; also: conjugated to E-coil peptide)
Unmodified 0.0547
  Corrosion Rate: 0.1981 mpy
Unmodified 4.2
  Ecorr: 87.2 mV
Unmodified 303.141
  Rp: 121.722 Ohms/cm^2
Unmodified 802
  Icorr: 1940 nAmps
